# What was measured:
# hen egg-white lysozyme = biological target: T1, hen egg-white lysozyme (hen, UniProt P00698 19-147); assay: phage ELISA on plates coated with HEL; signal on BSA subtracted
# T1 construct: also called HEL; hen egg lysozyme
# bovine serum albumin [1] = biological target: T2, bovine serum albumin (bovine, UniProt P02769 25-607); assay: phage ELISA (FIG. 51, clone 3)
# T2 construct: also called BSA
# [2] = biological target: T3, turkey egg-white lysozyme (turkey, UniProt P00703 19-147); assay: phage ELISA on plates coated with TEL; signal on BSA subtracted
# T3 construct: also called turkey egg lysozyme; turkey lysozyme
# bovine serum albumin [3] = biological target: T2, bovine serum albumin; assay: phage ELISA (FIG. 51, clone 9)
# human lysozyme = biological target: T4, human lysozyme (human, UniProt P61626 19-148); assay: phage ELISA, antigen coated at 1 mg/ml, sheep anti-M13 serum
# T4 construct: also called HUL
# T4 sequence (looked up): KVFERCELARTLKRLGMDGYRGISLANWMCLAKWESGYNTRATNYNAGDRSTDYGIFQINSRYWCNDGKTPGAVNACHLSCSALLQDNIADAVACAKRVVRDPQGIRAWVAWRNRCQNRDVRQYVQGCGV
# Protocol: Before use, this solution was removed, the plate rinsed several times in PBS and incubated with 200 ul of 2% milk powder/PBS for 1 hour. After rinsing several times with PBS, 100 ul of the test samples were added and incubated for 1 hour. Plates were washed (3 rinses in 0.05% Tween 20/PBS followed by 3 rinses in PBS alone). Bound phage antibodies were detected by adding 200 ul/well of a 1/1000 dilution of sheep anti-M13 polyclonal antiserum (gift from G. Winter, although an equivalent antibody can be readily made by one skilled in the art using standard methodologies) in 2% milk powder/PBS and incubating for 1 hour. After washing as above, plates were incubated with biotinylated anti-sheep antibody (Amersham International) for 30 minutes. Plates were washed as above, and incubated with streptavidin-horseradish peroxidase complex (Amersham International).
# (§1) 2×10¹⁰ phage transducing units were added to the antigen coated plates in phosphate buffered saline (PBS) containing 2% skimmed milk powder (MPBS). Plates were washed between each step with three rinses of 0.5% Tween-20 in PBS followed by three rinses of PBS.
# bovine serum albumin [4] = biological target: T2, bovine serum albumin; assay: phage ELISA, antigens coated at 200 µg/ml, average absorbance of duplicates after 10 minutes
# Protocol: as §1
# ELISA plates were coated at 37° C. in 50 mM NaHCO3 at a protein concentration of 200 μg/ml.
# [5] = biological target: T3, turkey egg-white lysozyme; assay: phage ELISA on turkey egg white lysozyme after 4 rounds of selection
# bovine serum albumin [6] = biological target: T2, bovine serum albumin; assay: phage ELISA (FIG. 51, clone 1)
# T3 sequence (P00703 19-147): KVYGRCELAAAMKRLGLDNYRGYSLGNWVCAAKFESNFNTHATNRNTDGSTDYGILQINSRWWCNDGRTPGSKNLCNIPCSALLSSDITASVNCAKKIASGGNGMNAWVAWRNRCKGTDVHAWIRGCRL
# T2 sequence (P02769 25-607 limits assumed): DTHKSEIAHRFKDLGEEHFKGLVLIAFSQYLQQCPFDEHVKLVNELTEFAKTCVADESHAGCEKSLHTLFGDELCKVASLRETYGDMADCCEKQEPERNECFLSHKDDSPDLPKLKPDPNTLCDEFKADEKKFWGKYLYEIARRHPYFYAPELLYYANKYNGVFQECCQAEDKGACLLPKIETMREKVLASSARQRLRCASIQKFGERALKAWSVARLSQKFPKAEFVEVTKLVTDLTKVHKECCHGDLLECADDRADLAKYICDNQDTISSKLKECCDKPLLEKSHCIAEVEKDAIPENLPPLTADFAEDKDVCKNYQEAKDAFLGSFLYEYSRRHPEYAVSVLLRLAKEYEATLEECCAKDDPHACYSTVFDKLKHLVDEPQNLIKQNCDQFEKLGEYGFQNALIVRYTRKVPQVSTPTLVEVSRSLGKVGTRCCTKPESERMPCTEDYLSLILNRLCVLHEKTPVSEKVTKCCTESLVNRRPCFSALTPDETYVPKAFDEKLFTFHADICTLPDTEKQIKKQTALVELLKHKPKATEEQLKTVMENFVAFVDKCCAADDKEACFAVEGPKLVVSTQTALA
# T1 sequence (P00698 19-147 limits assumed): as the sequence (P00703 19-147) above, with Y3F, L15H, H41Q, K73R, A99V, G101D, H121Q counted along it
binder,measurement,setting,value
"clone MF1 (clone 3 of FIG. 51): scFv of D1.3 VH with a light chain selected from the VLK library of an unimmunised mouse (scFv, also called M1F; D1.3 M1F; not shown: fd gene III protein (g3p), the phage display partner fused after the scFv through the NotI AAA junction) scFv: QVQLQESGPGLVAPSQSLSITCTVSGFSLTGYGVNWVRQPPGKGLEWLGMIWGDGNTDYNSALKSRLSISKDNSKSQVFLKMNSLHTDDTARYYCARERDYRLDYWGQGTTVTVSSGGGGSGGGGSGGGGSDIELTQSPSSLSASLGERVSLTCRASQDIGSSLNWLQQEPDGTIKRLIYATSSLDSGVPKRFSGSRSGSDYSLTISSLESEDFVDYYCLQYASSPWTFGGGTKLELKR",binding result,hen egg-white lysozyme,binds
same,binding result,bovine serum albumin [1],no binding
same,binding result,[2],binds
"clone M21 (clone 9 of FIG. 51): scFv of D1.3 VH with a light chain selected from the VLK library of an unimmunised mouse (scFv, not shown: fd gene III protein (g3p), the phage display partner fused after the scFv through the NotI AAA junction) scFv: QVQLQESGPGLVAPSQSLSITCTVSGFSLTGYGVNWVRQPPGKGLEWLGMIWGDGNTDYNSALKSRLSISKDNSKSQVFLKMNSLHTDDTARYYCARERDYRLDYWGQGTTVTVSSGGGGSGGGGSGGGGSDIELTQSPALMAASPGEKVTITCSVSSSISSSNLHWYQQKSETSPKPWIYGTSNLASGVPVRFSGSGSGTSYSLTISSMEAEDAATYYCQQWSSYPLTFGAGTKLEIKR",binding result,hen egg-white lysozyme,binds
same,binding result,bovine serum albumin [3],no binding
same,binding result,[2],binds
"fdTscFvD1.3 (phage antibody displaying the single chain Fv of anti-lysozyme antibody D1.3) (scFv, not shown: large carriers, scFv displayed on fd phage as a fusion near the N-terminus of g3p, also called pAb D1.3; pAb (D1.3)) scFv: QVQLQESGPGLVAPSQSLSITCTVSGFSLTGYGVNWVRQPPGKGLEWLGMIWGDGNTDYNSALKSRLSISKDNSKSQVFLKMNSLHTDDTARYYCARERDYRLDYWGQGTTVTVSSGGGGSGGGGSGGGGSDIELTQSPASLSASVGETVTITCRASGNIHNYLAWYQQKQGKSPQLLVYYTTTLADGVPSRFSGSGSGTQYSLKINSLQPEDFGSYYCQHFWSTPRTFGGGTKLEIK",binding result,human lysozyme,no binding
same,binding result,bovine serum albumin [4],"no binding (tested: one amount, as in example 6)"
"lysozyme binder scFv from the unimmunized human library (VH13.1 / VL13.1), on phage (scFv, V domains shown, scFv with (Gly4Ser)3 linker on pHEN1 phagemid particles) VH: QVQLVQSGAEVKKPGQSLMISCQGSGYSFSNYWIGWVRQMPGKGLEWMGIIYPGDSDTRYSPSFQGQVTISADKSISTAYLHWSSLKASDTALYYCARLVGGTPAYWGQGT VL: HVILTQPASVSGSPGQSITISCTGSSRDVGGYNYVSWYQHHPGKAPKLLISEVTNRPSGVSNRFSGSKSGNTASLTISGLQAEDEADYFCASYTSSKTYVFGG",binding result,[5],binds
"fdCAT2 scFvD1.3 phage (scFv, not shown: large carriers, scFv displayed on fd phage as an N-terminal fusion to g3p, also called original D1.3 scFv) scFv: QVQLQESGPGLVAPSQSLSITCTVSGFSLTGYGVNWVRQPPGKGLEWLGMIWGDGNTDYNSALKSRLSISKDNSKSQVFLKMNSLHTDDTARYYCARERDYRLDYWGQGTTVTVSSGGGGSGGGGSGGGGSDIELTQSPASLSASVGETVTITCRASGNIHNYLAWYQQKQGKSPQLLVYYTTTLADGVPSRFSGSGSGTQYSLKINSLQPEDFGSYYCQHFWSTPRTFGGGTKLEIK",binding result,bovine serum albumin [6],no binding
